Test [1] addresses T1, 6×His tagged C57BL/6 mouse SIRPα ECD recombinant protein (mouse (C57BL/6), UniProt P97797 32-373).
T1 construct: extracellular domain; bought; also called mSIRPα (C57BL/6); mouse SIRPα (C57BL/6) ECD
T1 sequence: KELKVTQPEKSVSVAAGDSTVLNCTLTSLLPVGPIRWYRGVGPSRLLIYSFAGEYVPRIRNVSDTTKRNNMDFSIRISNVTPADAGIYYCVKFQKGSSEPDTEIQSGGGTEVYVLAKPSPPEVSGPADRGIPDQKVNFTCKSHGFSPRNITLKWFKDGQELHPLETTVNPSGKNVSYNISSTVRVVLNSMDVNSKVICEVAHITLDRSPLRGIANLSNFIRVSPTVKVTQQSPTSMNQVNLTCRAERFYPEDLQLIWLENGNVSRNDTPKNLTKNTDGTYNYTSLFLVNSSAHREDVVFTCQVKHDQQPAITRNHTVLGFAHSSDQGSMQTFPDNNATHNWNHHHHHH
Nature of the test: ELISA on coated mouse SIRPα (C57BL/6) ECD, antibody at 10, 1 and 0.1 ug/ml [right panel mSIRPα ECD (C57BL/6]. A general note: In an ELISA, binding on a coated surface is turned into a signal by an enzyme label.

The target in test [2] is T2, Fc tagged human SIRPα v1 ECD recombinant protein (human, UniProt P78324 31-370).
T2 construct: range 1-370; cloned range M1-R370 includes the signal peptide; also called hSIRPα V1; not shown: human IgG Fc region (hFc) of the pCPC vector
Kind of test: ELISA.

In test [3] the target is T3, Fc tagged human SIRPα v2 ECD recombinant protein (human).
T3 construct: range 1-369; cloned range M1-R369 includes the signal peptide; also called hSIRPα V2
Kind of test: ELISA.

The target in test [4] is T4, Fc tagged human SIRPβ ECD recombinant protein (human, UniProt O00241 30-371).
T4 construct: range 1-371; cloned range includes the signal peptide; also called hSIRPβ; not shown: human IgG Fc region (hFc) of the pCPC vector
Kind of test: ELISA.

In test [5] the target is T5, Fc tagged human SIRPγ ECD recombinant protein (human, UniProt Q9P1W8 29-360).
T5 construct: range 1-360; cloned range includes the signal peptide; also called hSIRPγ; not shown: human IgG Fc region (hFc) of the pCPC vector
Nature of the test: ELISA.

The target of test [6] is T6, 6×His tagged human SIRPα v8 ECD recombinant protein (human).
T6 construct: extracellular domain; bought; also called hSIRPα V8
Nature of the test: ELISA.

For test [7], the target named is T7, 6×His tagged human SIRPα v2 ECD recombinant protein (human). Kind of test: SPR (Biacore). In general terms: In SPR one partner is held on a chip, and binding of the other changes the refractive index at the surface.
The target of test [8] is T8, 6×His tagged human SIRPα v1 ECD recombinant protein (human, UniProt P78324 31-373).
T8 construct: extracellular domain; bought; also called hSIRPα V1 (SPR antigen)
Kind of test: SPR (Biacore).

Test [9] addresses T1, 6×His tagged C57BL/6 mouse SIRPα ECD …. Kind of test: SPR (Biacore).
Test [10] has as its target T7, 6×His tagged human SIRPα v2 ECD …. Nature of the test: SPR (Biacore), antibody captured. In short, it runs like this:
(§1)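 Chimeric anti-SIRPα antibodies captured on CM5 via anti-human antibody kit; His-tagged SIRPα ECD proteins injected as dilution series at 30 μl/min for 180 s, dissociation 400 s, regeneration with 3 M MgCl₂. Ka, Kd and KD from 1:1 binding model fits.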

For test [11], the target named is T8, 6×His tagged human SIRPα v1 ECD …. Nature of the test: SPR (Biacore), antibody captured. In short, it runs like this:
as §1

Test [12] has as its target T9, biotin labeled soluble human SIRPα v1 ECD recombinant protein (human, UniProt P78324 31-373, biotin labeled).
T9 construct: extracellular domain
Nature of the test: competitive ELISA, hSIRPα/CD47 blocking.

Test [13] deals with T10, full length C57BL/6 mouse SIRPα stably expressed on CHOK1 cells (mouse (C57BL/6), UniProt P97797 32-513).
T10 construct: whole, on cells; also called CHOK1-C57BL/6 mouse SIRPα-2.22 cells
T10 sequence (looked up): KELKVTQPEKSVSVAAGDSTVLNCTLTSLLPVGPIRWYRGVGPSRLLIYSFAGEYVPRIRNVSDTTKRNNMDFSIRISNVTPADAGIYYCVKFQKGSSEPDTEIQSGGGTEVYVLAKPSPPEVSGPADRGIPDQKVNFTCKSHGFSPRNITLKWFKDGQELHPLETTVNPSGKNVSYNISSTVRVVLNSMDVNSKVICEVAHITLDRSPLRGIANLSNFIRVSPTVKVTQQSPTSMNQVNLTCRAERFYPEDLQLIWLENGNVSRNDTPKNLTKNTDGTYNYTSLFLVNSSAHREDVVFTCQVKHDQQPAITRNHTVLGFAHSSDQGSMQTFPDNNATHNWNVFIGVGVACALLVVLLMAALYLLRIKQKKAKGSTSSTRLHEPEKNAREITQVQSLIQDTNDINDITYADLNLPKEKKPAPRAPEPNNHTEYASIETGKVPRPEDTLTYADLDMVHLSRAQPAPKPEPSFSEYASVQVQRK
Nature of the test: FACS on CHOK1-C57BL/6 mouse SIRPα-2.22 cells. The protocol: Species cross reactivity of the purified hybridoma antibodies against human, cyno and mouse SIRPα was determined by FACS assay using CHOK1-human SIRPα v1-1B4 cells, CHOK1-cyno SIRPα-2A2 cells, and CHOK1-C57BL/6 mouse SIRPα-2.22 cells, which stably expressing SIRPα protein. Briefly the antibodies were incubated with 2×10⁵ target cells at 4° C. for 1 hour. After washing, fluorescence labeled anti-mouse or anti-human IgG 2nd antibody (Life Technologies) was added and incubated at 4° C. for 1 hour. Geometric median fluorescence intensity was detected and EC₅₀ was calculated. In particular, it is noted, in contrast to the other antibodies tested in the same experiment, 060 cannot bind with cyno SIRPα and 035 has cross reactivity against C57BL/6 mouse SIRPα.

The source of these data is patent US20210347908A1 (ELPISCIENCE SUZHOU BIOPHARMA, published 2021).

T7 sequence (chain, as listed by the source): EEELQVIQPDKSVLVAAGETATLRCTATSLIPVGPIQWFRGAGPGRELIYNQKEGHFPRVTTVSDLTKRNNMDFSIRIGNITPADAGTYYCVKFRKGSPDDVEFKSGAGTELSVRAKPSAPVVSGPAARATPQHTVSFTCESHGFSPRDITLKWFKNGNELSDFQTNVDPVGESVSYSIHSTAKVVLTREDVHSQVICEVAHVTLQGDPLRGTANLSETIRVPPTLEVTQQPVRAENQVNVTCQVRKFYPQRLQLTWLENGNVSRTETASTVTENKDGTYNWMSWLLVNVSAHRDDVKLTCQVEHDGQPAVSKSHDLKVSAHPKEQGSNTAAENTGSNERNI
T8 sequence (P78324 other isoform, or with tags, fused parts or gaps): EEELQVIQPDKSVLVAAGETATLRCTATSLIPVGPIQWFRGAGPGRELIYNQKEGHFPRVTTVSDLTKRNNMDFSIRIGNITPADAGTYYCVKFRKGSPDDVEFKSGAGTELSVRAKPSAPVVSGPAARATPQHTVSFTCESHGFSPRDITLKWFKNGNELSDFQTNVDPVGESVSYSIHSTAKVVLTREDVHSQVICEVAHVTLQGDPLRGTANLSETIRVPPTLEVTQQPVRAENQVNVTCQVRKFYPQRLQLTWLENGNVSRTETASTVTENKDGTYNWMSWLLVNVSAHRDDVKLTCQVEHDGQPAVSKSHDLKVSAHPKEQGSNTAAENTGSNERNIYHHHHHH
T9 sequence (P78324 31-373): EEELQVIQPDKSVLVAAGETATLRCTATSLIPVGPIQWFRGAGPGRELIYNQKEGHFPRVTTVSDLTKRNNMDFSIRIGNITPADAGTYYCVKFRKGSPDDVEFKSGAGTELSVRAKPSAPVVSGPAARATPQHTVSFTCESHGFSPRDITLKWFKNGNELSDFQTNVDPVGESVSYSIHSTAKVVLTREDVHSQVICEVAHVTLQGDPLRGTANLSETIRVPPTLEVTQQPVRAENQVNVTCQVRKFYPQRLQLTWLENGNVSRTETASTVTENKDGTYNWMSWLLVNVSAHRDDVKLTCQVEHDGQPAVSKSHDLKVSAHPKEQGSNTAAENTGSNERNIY
T5 sequence (Q9P1W8 29-360 limits assumed, form in doubt): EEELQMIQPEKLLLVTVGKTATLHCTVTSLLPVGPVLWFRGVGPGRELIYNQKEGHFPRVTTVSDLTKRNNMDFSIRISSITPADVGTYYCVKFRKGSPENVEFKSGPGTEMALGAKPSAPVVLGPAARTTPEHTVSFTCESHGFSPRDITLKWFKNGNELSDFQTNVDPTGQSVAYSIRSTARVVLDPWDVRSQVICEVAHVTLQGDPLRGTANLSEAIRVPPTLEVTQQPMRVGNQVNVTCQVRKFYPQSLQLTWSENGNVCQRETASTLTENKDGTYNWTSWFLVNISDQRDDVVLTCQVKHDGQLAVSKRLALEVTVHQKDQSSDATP
T2 sequence (P78324 31-370 limits assumed): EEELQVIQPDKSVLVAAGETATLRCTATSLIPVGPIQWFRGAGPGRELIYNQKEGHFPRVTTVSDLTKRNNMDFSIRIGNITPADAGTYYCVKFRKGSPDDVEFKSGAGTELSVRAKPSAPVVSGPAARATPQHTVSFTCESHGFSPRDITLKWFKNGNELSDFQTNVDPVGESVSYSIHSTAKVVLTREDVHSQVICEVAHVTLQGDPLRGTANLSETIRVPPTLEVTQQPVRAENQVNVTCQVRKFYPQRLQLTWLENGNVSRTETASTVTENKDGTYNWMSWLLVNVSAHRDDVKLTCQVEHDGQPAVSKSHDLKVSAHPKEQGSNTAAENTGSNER
T4 sequence (O00241 30-371 limits assumed, form in doubt): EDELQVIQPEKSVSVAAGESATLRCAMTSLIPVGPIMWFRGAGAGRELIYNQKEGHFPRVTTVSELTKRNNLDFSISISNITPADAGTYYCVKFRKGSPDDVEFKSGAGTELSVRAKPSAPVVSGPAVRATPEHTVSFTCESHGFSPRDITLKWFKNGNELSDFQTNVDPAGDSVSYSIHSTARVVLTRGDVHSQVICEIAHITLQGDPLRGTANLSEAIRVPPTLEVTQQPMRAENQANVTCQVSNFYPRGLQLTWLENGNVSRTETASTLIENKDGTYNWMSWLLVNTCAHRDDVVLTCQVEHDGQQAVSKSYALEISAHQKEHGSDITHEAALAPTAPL

B1: chimeric antibody 032c (antibody, V domains shown)
VH: EVRLEESGGGLVQPGGSMKLSCVVSGFTFRNYWMNWVRQSPERGLEWIAEITLKSNTYATHYAESVKGRFAISRDDSKSSFYLQMNDLRPEDTGIYYCTTFTKVVADWHLDVWGAGTTVTVSS
VL: DVLMTQTPLSLPVNLGDQASISCRSSQNIVHSNGNTYLEWYLQKPGQSPKLLIYKVSNRFSGVPDRFSGSGSGTDFTLRISRVEAEDLGVYYCFQGSHVPFTFGSGTKLEIK
On to B1, for which the binding result in [1] is reported as “no binding (tested: 10 ug/ml)”.

B2: chimeric antibody 035c (antibody, V domains shown)
VH: QIQLVQSGPELRKPGETVKISCKASGYSFTNYAMNWVKQAPGKVLKWMGFINTYTGEPTYADDFKGRFAFSLETSASTAYLQINNLKNEDTATYFCTRTRGYYDFDGGAFDYWGQGTSLTVSS
VL: DIVMTQSQKFMSTSIGDRVSVTCKASQNVGTHLAWYQQKPGQSPKALIFSASYRYIGVPDRFTGSGSGTDFTLTITNVQSEDLAEYFCQQYNTYPLTFGAGTKLELK
For orientation: EC50 means the midpoint of the concentration-response curve. As usually defined, the Kd is the free concentration of one partner at which half of the binding sites on the other are occupied at equilibrium, for simple one-to-one binding. The term koff denotes the rate constant with which the complex falls apart. For orientation: kon means the second-order rate constant of association. As usually defined, the IC50 is the concentration needed to halve the response being measured. In general, EC50 (read off the curve) refers to the midpoint of the concentration-response curve. Read a low EC50 (read off the curve) as greater potency. For the molecule B2, the EC50 in test [2] came to 0.16 nM; in [3], 0.13 nM; in test [4] it was 0.13 nM; in test [5] it was 16.4 nM; in test [6], 0.2 nM. Moreover, the Kd is 1.39 nM in test [7]; 1.89 nM in [8]; 5.27 µM in test [9]; 3.82 nM in test [10]; 1.89 nM in test [11]. Besides, the results for the koff in [10] and in test [11] were 0.000238 s⁻¹ and 0.000274 s⁻¹, respectively. The kon in test [10] stood at 62100 M⁻¹ s⁻¹; in [11], 145000 M⁻¹ s⁻¹. Besides, the IC50 in test [12] turned out to be 1.03 nM. The “EC50 (read off the curve)” value in test [13] was around 0.3 µg/mL.
